Test results published in patent US20210032312A1 (Janssen / Centocor, published 2021).
Changes are numbered by the printed parent chain.

B1: P283HR7P1368_D4 (designed binder)
chain: LPAPKNLVVSRVTEDSARLSWTAPDAAFDSFAIWCVEPIPEGEAIPLFVPGSERSYDLTGLKPGTEYRVGIRGVKGGTFSSPLAAPFTT
notes: FN3 domain
B2: P283GR7P1367_B7 (designed binder)
chain: LPAPKNLVVSRVTEDSARLSWTAPDAAFDSFDIAYPEWPTDGEAIVLTVPGSERSYDLTGLKPGTEYFVVIYGVKGGHWSYPLSAIFTT
notes: FN3 domain
B3: P283GR7P1367_B9 (designed binder)
chain: B2 chain with D32E, A34W, P36H, W38Y, P39H, T40P, D41R, G51S, F68D, Y72S
notes: FN3 domain
B4: P283GR7P1367_H2 (designed binder)
chain: B2 chain with H78G, W79R
notes: FN3 domain
B5: P283GR7P1367_F5 (designed binder)
chain: B2 chain with V70I, H78A, W79L, Y81R
notes: FN3 domain
B6: P283GR7P1367_E5 (designed binder)
chain: B2 chain with D32E, A34W, P36H, W38Y, P39H, T40P, D41R, F68D, Y72S
notes: FN3 domain
B7: P283GR7P1367_H9 (designed binder)
chain: B2 chain with H78G, W79R, Y81A
notes: FN3 domain
B8: P283GR7P1367_C9 (designed binder)
chain: B2 chain with D32L, A34G, T40L, D41G, F68W, V70I, H78E, W79Y, Y81D
notes: FN3 domain
B9: P283HR7P1368_D1 (designed binder)
chain: LPAPKNLVVSRVTEDSARLSWTAPDAAFDSFGISYYEWAPNGEAIQLSVPGSERSYDLTGLKPGTEYHVVIIGVKGGEPSHPLGAPFTT
notes: FN3 domain
B10: P283ER9P1365_G3 (designed binder)
chain: B9 chain with P86I
notes: FN3 domain
B11: P283HR7P1368_H1 (designed binder)
chain: B9 chain with S34A, Y36I, W38T, P40R, N41W, Q46S, S48T, H68N, E78T
notes: FN3 domain
B12: P283HR7P1368_B12 (designed binder)
chain: B9 chain with S34G, Y36V, W38F, A39T, P40R, N41A, Q46S
notes: FN3 domain
B13: P283GR7P1367_G8 (designed binder)
chain: LPAPKNLVVSRVTEDSARLSWTAPDAAFDSFYIAYPEYVWGGEATSLGEAIVLTVPGSERSYDLTGLKPGTEYFVVITGVKGGLGSYPLSAIFTT
notes: FN3 domain
B14: P283HR7P1368_G11 (designed binder)
chain: LPAPKNLVVSRVTEDSARLSWTAPDAAFDSFGIGYAEPAVTGEAISLSVPGSERSYDLTGLKPGTEYWVVIIGVKGGINSYPLGASFTT
notes: FN3 domain
B15: P283HR7P1368_D2 (designed binder)
chain: B14 chain with D29N
notes: FN3 domain
B16: P283ER9P1365_B6 (designed binder)
chain: B14 chain with A39V, S86I
notes: FN3 domain
B17: P283HR7P1368_C3 (designed binder)
chain: B14 chain with E53K
notes: FN3 domain
B18: P283ER9P1365_E2 (designed binder)
chain: LPAPKNLVVSRVTEDSARLSWTAPDAAFDSFYIPYRESEFRGEAIALPVPGSERSYDLTGLKPGTKYRVIIIGVKGGEFSQPLAAIFTT
notes: FN3 domain
B19: P283ER9P1365_A7 (designed binder)
chain: B18 chain with R36W, F40V, R41Y, K66E, R68Q, I70S, E78V, F79Y
notes: FN3 domain
B20: P283GR7P1367_B4 (designed binder)
chain: LPAPKNLVVSRVTEDSARLSWTAPDAAFDSFSILYYELPPSGEAIVLTVPGSERSYDLTGLKPGTEYTVSIFGVKGGDNSFPLSAIFTT
notes: FN3 domain
B21: P283FR9P1366_H5 (designed binder)
chain: LPAPKNLVVSRVTEDSARLSWTAPDAAFDSFIYIENKVNGEAIVLTVPGSERSYDLTGLKPGTEYHVTIGGVKGGTESNTLSAIFTT
notes: FN3 domain
B22: P283HR7P1368_A10 (designed binder)
chain: LPAPKNLVVSRVTEDSARLSWTAPDAAFDSFWIFYLEPFPRGEAIPLEVPGSERSYDLTGLKPGTEYSVDIRGVKGGDHSDPLWAYFTT
notes: FN3 domain
B23: P283GR7P1367_H8 (designed binder)
chain: LPAPKNLVVSRVTEDSARLSWTAPDAAFDSFSINYWEEDPAGEAIVLTVPGSERSYDLTGLKPGTEYRVLIGGVKGGHGSLPLSAIFTT
notes: FN3 domain

Biological target: T1, human CD8A-Fc (in house) (human, UniProt P01732 22-182, limits assumed)
T1 construct: captured by goat anti-human Fc on the ProteOn chip; also called hCD8A-Fc; recombinant human CD8 alpha; not shown: linker/tag and Fc of human IgG1
Experiment: SPR (ProteOn), captured hCD8A-Fc

T1 sequence (P01732 22-182 limits assumed): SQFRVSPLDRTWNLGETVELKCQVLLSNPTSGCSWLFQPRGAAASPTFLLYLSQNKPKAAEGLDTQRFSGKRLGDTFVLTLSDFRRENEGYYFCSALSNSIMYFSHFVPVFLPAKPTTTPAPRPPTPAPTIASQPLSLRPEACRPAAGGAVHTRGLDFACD

Binder	koff
B1	0.000235 s⁻¹
B2	0.00127 s⁻¹
B3	0.00116 s⁻¹
B4	0.00235 s⁻¹
B5	0.00108 s⁻¹
B6	0.00124 s⁻¹
B7	0.00147 s⁻¹
B8	0.00221 s⁻¹
B9	0.00166 s⁻¹
B10	0.0025 s⁻¹
B11	0.000552 s⁻¹
B12	4.53e-05 s⁻¹
B13	0.00385 s⁻¹
B14	0.000373 s⁻¹
B15	0.0013 s⁻¹
B16	0.000288 s⁻¹
B17	0.000349 s⁻¹
B18	0.000311 s⁻¹
B19	0.000786 s⁻¹
B20	0.00518 s⁻¹
B21	0.00318 s⁻¹
B22	0.000513 s⁻¹
B23	0.00974 s⁻¹

Biological target: T2, cynomolgus monkey CD8 alpha on primary cynomolgus CD8+ T cells (cynomolgus monkey, UniProt P01732 23-235 (human entry))
T2 construct: also called Cyno CD8alpha; cyno CD8A
Experiment: flow cytometry, cyno CD8+ T cells

T2 sequence (P01732 other isoform, or with tags, fused parts or gaps limits assumed): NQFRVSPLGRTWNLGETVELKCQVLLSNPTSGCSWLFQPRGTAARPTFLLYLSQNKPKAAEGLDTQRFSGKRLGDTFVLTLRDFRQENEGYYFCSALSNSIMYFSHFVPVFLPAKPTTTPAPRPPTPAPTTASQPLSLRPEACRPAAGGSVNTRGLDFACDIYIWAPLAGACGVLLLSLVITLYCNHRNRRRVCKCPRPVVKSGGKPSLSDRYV

Binder	Cyno T-cell Binding 0.2 uM (MFI)	Cyno T-cell Binding 2 uM (MFI)
B1	23500 MFI	53000 MFI
B2	3130 MFI	37500 MFI
B3	442 MFI	2920 MFI
B4	864 MFI	4210 MFI
B5	2050 MFI	29000 MFI
B6	533 MFI	3190 MFI
B7	918 MFI	6120 MFI
B8	5550 MFI	67000 MFI
B9	1410 MFI	7850 MFI
B10	1470 MFI	3480 MFI
B11	1970 MFI	17300 MFI
B12	826 MFI	18600 MFI
B13	1420 MFI	21000 MFI
B14	1340 MFI	14900 MFI
B15	950 MFI	11100 MFI
B16	2690 MFI	30100 MFI
B17	1310 MFI	13300 MFI
B18	1900 MFI	17200 MFI
B19	2960 MFI	36600 MFI
B20	367 MFI	396 MFI
B21	477 MFI	5090 MFI
B22	4770 MFI	42300 MFI
B23	930 MFI	20900 MFI

Biological target: T3, human CD8 alpha (CD8A) on primary human CD8+ T cells (human, UniProt P01732 22-235)
T3 construct: whole, on cells; also called hCD8A
Experiment: flow cytometry, human CD8+ T cells

T3 sequence (P01732 22-235): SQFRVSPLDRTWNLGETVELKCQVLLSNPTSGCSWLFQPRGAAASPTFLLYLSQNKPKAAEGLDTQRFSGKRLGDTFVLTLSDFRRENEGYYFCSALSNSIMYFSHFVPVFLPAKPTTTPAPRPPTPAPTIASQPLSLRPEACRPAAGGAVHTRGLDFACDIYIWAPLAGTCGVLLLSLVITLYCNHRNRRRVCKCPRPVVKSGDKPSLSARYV

Binder	Human T-cell Binding 0.2 uM (MFI)	Human T-cell Binding 2 uM (MFI)
B1	6850 MFI	29000 MFI
B2	739 MFI	10900 MFI
B3	1090 MFI	11200 MFI
B4	390 MFI	1620 MFI
B5	601 MFI	4560 MFI
B6	1330 MFI	10000 MFI
B7	434 MFI	1710 MFI
B8	896 MFI	11000 MFI
B9	2310 MFI	14100 MFI
B10	2920 MFI	12500 MFI
B11	2460 MFI	15400 MFI
B12	1540 MFI	13400 MFI
B13	450 MFI	1460 MFI
B14	2650 MFI	19300 MFI
B15	1910 MFI	15200 MFI
B16	3400 MFI	23000 MFI
B17	2220 MFI	12700 MFI
B18	2870 MFI	20000 MFI
B19	1320 MFI	18500 MFI
B20	446 MFI	8300 MFI
B21	252 MFI	3140 MFI
B22	3230 MFI	13600 MFI
B23	303 MFI	5270 MFI
